Assays:
[1] = molecular target: T1, Human TNFR2-His (Sino 10417-H08H) (human, UniProt P20333 23-257); assay: ELISA, human TNFR2-His coated
T1 construct: Bought protein; also called recombinant human TNFR2 protein; not shown: His tag
T1 sequence (looked up): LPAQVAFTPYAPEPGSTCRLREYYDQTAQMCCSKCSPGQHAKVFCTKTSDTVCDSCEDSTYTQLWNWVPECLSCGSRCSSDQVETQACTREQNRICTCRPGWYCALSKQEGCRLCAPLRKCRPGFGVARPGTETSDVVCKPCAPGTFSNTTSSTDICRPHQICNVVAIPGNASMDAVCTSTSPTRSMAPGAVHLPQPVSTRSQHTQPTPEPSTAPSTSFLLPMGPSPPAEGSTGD
Protocol: The test humanized antibody against TNFR2 (as described in Example 1, the antibody was comprised of variable regions linked to IgG-Fc; the WT chimeric antibody also adopted the IgG-Fc structure) was subjected to 3.33-fold gradient dilution, loaded with 100 μl/well, and incubated with shaking at room temperature for 1.5 hours. The plate was washed, and then a working solution of murine anti-human IgG Fc-HRP (diluted at 1:10000) was added, loaded with 100 μl/well, and incubated with shaking at room temperature for 1.0 hour. The plate was washed again, and then the substrate TMB of HRP was added to develop colour. A stop solution was added to stop the reaction, and then a microplate reader (MD 13) was used to read the absorbance value. The binding curve of an antibody was drawn with antibody concentration as the abscissa and corresponding OD value as the ordinate, and fitted with four parameters (GraphPad Prism9) to calculate the EC50 value. The smaller the EC50 value, the stronger the binding ability of an antibody to human/cynomolgus monkey TNFR2. The binding effect of a humanized antibody was normalized to its corresponding human-murine chimeric antibody WT (see SEQ ID NOs: 38-43 for the sequence). The higher the percentage value, the better the binding effect of the humanized antibody. The results of binding of an anti-TNFR2 antibody to a human TNFR2 protein are shown in FIG. 1 and Table 4, and the results of binding of an anti-TNFR2 antibody to cynomolgus monkey TNFR2 are shown in FIG. 2 and Table 4.

[2] = molecular target: T2, human TNFR2 (Novoprotein, Cat #C830) (human, UniProt P20333 23-257, limits assumed); assay: competition ELISA, human TNFR2 coated, competitor human TNFα-Biotin
T2 construct: construct not described; also called human TNFR2 protein
T2 sequence (looked up): T1 sequence (looked up)
Protocol: (§1) 1 μg/ml human TNFR2 (Novoprotein, Cat #C830) was pre-coated with 100 μl/well […] in an ELISA plate. All the test TNFR2 antibodies were subjected to 2.5-fold gradient dilution from the highest concentration of 30 μg/ml; the diluted antibodies were mixed with 15 ng/ml human TNFα-Biotin (Acro Biosystem, Cat #TNA-H82E3) in equal volume, respectively; the resulting mixture was added to the ELISA plate at 100 μl/well, and incubated with shaking at room temperature for 2.0 hours. The plate was washed, and then a Streptavidin-HRP working solution (diluted at 1:10000) was added at 100 μl/well, and the mixture was incubated with shaking at room temperature for 40 minutes. The plate was washed again, and then the substrate TMB of HRP was added to develop colour. A stop solution was added to stop the reaction, and then a microplate reader (MD 13) was used to read the absorbance value. The inhibitory curve of an antibody was drawn with antibody concentration as the abscissa and corresponding OD value as the ordinate, and fitted with four parameters (GraphPad Prism9) to calculate the IC50 value. The smaller the IC50 value, the stronger the ability of an antibody to inhibit the binding of human TNFα to human TNFR2. The blocking effect of a humanized antibody was normalized to its corresponding human-murine chimeric antibody WT. The higher the percentage value, the better the inhibitory effect of the humanized antibody.

[3] = molecular target: T2, human TNFR2 (Novoprotein, Cat #C830); assay: competition ELISA, competitor human TNFα-Biotin; IC50 against 224-WT
Protocol: as §1

[4] = molecular target: T3, human TNFR2 on the surface of CHO-TNFR2 cells (human, UniProt P20333 23-461); assay: competition flow cytometry on CHO-TNFR2 cells, competitor human TNFα-biotin
T3 construct: whole, on cells
T3 sequence (looked up): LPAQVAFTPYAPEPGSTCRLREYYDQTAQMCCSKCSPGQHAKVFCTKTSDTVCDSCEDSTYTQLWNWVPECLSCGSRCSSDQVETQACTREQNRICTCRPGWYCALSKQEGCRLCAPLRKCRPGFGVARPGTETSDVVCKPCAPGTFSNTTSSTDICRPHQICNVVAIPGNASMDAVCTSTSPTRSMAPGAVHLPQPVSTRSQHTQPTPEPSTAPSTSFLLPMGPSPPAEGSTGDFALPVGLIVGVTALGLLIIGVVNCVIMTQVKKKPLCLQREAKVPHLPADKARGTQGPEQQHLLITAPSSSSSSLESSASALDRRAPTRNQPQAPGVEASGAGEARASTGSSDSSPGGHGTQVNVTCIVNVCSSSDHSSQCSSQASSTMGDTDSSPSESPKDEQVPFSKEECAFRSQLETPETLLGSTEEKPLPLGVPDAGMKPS
Protocol: (§2) CHO stable cells highly expressing human TNFR2 were used for the experiment (the same as CHO-TNFR2 in Example 4). The CHO-TNFR2 cells were digested, washed twice with DPBS, then stained with Live/Dead (L/D) (20 minutes at room temperature), and plated at a density of 1×10⁵ cells/50 μl/well. A test anti-TNFR2 antibody was diluted to 6 μg/ml with a staining buffer as the starting concentration: the antibody was subjected to 3.33-fold gradient dilution, with a total of 7 concentration points. The diluted antibody was added to the plated cells at 50 μl/well, and the mixture was mixed well by gentle pipetting, and incubated at 4° C. for 30 minutes. Then the diluted 100 ng/ml of human TNFα-biotin was added at 100 μl/well, and the mixture was mixed well by gentle pipetting, and then incubated at 4° C. for 30 minutes. The mixture was washed twice with a staining buffer, and then 0.12 μg/ml PE-streptavidin (BioLegend, Cat #405204) was added at 100 μl/well; the resulting mixture was incubated at 4° C. for 30 minutes. The mixture was washed twice with a staining buffer, and then 150 μl of staining buffer was added to resuspend the cells; signals were detected by a flow cytometer (Thermo Attune NxT). The inhibitory curve of an antibody was drawn with antibody concentration as the abscissa and corresponding MFI value as the ordinate, and fitted with four parameters (GraphPad Prism9) to calculate the IC50 value. The smaller the IC50 value, the stronger the ability of an antibody to inhibit the binding of human TNFα to human TNFR2. The blocking effect of a humanized antibody was normalized to its corresponding human-murine chimeric WT antibody. The higher the percentage value, the better the inhibitory effect of the humanized antibody.

[5] = molecular target: T3, human TNFR2 on the surface of CHO-TNFR2 …; assay: competition flow cytometry on CHO-TNFR2 cells, competitor TNFα-biotin; AUC against 224-WT
Protocol: as §2

B1: 224-Hu5 (antibody, V domains shown)
VH: QVQLVQSGSELKKPGASVKVSCKASGFNNKDIYMHWVRQAPGQGLEWMGRIDPATGNTKHDPKFQDKAVLSSDTSVSTAYLQISSLKAEDTAVYYCARSPYGDFGAMDYWGQGTLVTVSS
VL: DIQMTQSPSSLSASVGDRVTITCTASSSVSSNYLHWYQQKPGKAPKLLIYSTSNLPSGVPSRFSGSGSGTDYSLTISSLQPEDFATYYCHQYHRSPWTFGQGTKVEIK
notes: Humanized form of #224; also called VH9 + VL9
B1 was tested, and the EC50 [1] was 0.0116 µg/mL, the IC50 [2] was 0.528 µg/mL and the “% Relative activity (WT antibody/test antibody)” value [3] was 93.1%. The IC50 [4] was 0.062 µg/mL and the “% Relative activity (WT antibody/test antibody)” value [5] was 94.4%.

— patent US20240109974A1 (SHANDONG SIMCERE BIOPHARMACEUTICAL, published 2024)
